{
  "source": "patent US20070243303",
  "about": "“Methods and Means for Regulating Gene Expression” (Friesland Brands B.V., published 2007)",
  "molecules": {"B1": {"name": "opp15(a) mutant oppD fragment (154 bp) (dsDNA)", "DNA 1": "AACTGCAGCGTAATATTTAGAAAATTCATGAACATACC", "DNA 2": "GGTATGTTCATGAATTTTCTAAATATTACGCTGCAGTT"}, "B2": {"name": "opp14 WT oppD fragment (154 bp) (dsDNA)", "DNA 1": "ATGTTCAGAAAATTCATGAACAT", "DNA 2": "ATGTTCATGAATTTTCTGAACAT"}, "B3": {"name": "oppD probe 1 / opp2 (160 bp, upstream arm removed) (dsDNA)", "DNA 1": "AACTGCAGGAAAATTCATGAACATACC", "DNA 2": "GGTATGTTCATGAATTTTCCTGCAGTT"}, "B4": {"name": "oppD probe 2 (-111 to +75) (dsDNA)", "DNA 1": "ATGTTCAGAAAATTCATGAACAT", "DNA 2": "ATGTTCATGAATTTTCTGAACAT"}, "B5": {"name": "oppD promoter fragment opp162 (probe 3, opp1-opp3 PCR) (dsDNA)", "DNA 1": "ATGTTCAGAAAATTCATGAACAT", "DNA 2": "ATGTTCATGAATTTTCTGAACAT"}, "B6": {"name": "opp15(b) mutant oppD fragment (154 bp) (dsDNA)", "DNA 1": "AACTGCAGCGTACTGTGCCGAAAATTCATGAACATACC", "DNA 2": "GGTATGTTCATGAATTTTCGGCACAGTACGCTGCAGTT"}},
  "key": {"[1]": {"target": "T1, CodY (native, in cell) (Lactococcus lactis subsp. cremoris …, UniProt A2RHP2 A2RHP2:1-262)", "T1 sequence": "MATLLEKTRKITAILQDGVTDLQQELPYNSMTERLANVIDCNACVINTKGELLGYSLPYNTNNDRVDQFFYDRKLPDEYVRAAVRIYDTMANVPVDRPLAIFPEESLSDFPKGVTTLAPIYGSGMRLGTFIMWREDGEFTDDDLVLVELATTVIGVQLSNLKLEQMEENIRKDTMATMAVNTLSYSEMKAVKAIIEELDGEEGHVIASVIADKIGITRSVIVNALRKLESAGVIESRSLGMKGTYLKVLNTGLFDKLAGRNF", "assay": "cell_activity", "conditions": "8-fold for prtM::lacZ; less than 2-fold in codY mutant; scale: fold repression"}, "[2]": {"target": "T1, CodY (native, in cell)", "assay": "cell_activity; lacZ reporter in L. lactis LL108", "from_the_text": "(§1) The fact that H6-CodY was unable to form a protein-DNA complex when a probe was used that lacks the upstream arm of this IR (probe 1 in FIG. 3) implies that this area might serve as an operator site for CodY on PoppD. To study this region in more detail, site directed mutations were introduced by PCR using combinations of oligonucleotide opp1 with oligonucleotides opp14 (WT), opp15(a), opp(15b) or opp2, respectively (FIG. 4A). The PCR products were ligated upstream of the promoterless lacZ reporter gene in pORI13 and introduced into L. lactis LL108. […] When the unchanged half-site was replaced by an unrelated sequence (an XbaI endonuclease site, present in opp2), repression was reduced approximately 30-fold (in cells growing exponentially in rich medium) and H6-CodY binding was completely abolished (as shown in FIG. 3).\n(§2) FIG. 4D: Promoter activity of PoppD variants. L. lactis LL108 strains carrying the lacZ reporter plasmids were grown in GM17 medium. Cells were harvested in the exponential phase of growth and β-galactosidase activity was measured (solid bars). […] Open bars indicate a quantitative representation of the DNA binding assay shown in panel C. The relative binding affinity of H6-CodY for the PoppD variants was calculated by comparing the intensity of the shifted, H6-CodY bound complexes with the total radioactive signal in each lane in the presence of 100 ng protein."}, "[3]": {"target": "T2, CodY (H6-CodY) (Lactococcus lactis subsp. cremoris …, UniProt A2RHP2 A2RHP2:1-262)", "T2 sequence": "T1 sequence", "assay": "EMSA; affinity order WT > opp15(a) > opp15(b)", "conditions": "tags: N-terminal His6 (pNH6CodY, nisin-induced in L. lactis NZ9000, Ni-NTA); chain copies: multimer, dimer or tetramer by cross-linking (stated); label: 32P 5'-end", "from_the_text": "as §1, §2"}, "[4]": {"target": "T2, CodY (H6-CodY)", "assay": "EMSA; no binding at any protein amount", "conditions": "tags: N-terminal His6 (pNH6CodY, nisin-induced in L. lactis NZ9000, Ni-NTA); chain copies: multimer, dimer or tetramer by cross-linking (stated); label: 32P 5'-end", "description": "BSA (1 μg) and poly(dI-dC) (Amersham Pharmacia Biotech) were added to the reaction mixtures in order to reduce non-specific interactions. After incubation for 15 min at 30° C., samples were loaded onto a 4% polyacrylamide gel. Electrophoresis was performed in the Protean II Minigel System (Bio Rad Laboratories B. V., Veenendaal, The Netherlands) using a gradient (0.5× to 2×) of TAE buffer (Sambrook, Fritsch, and Maniatis, 1989) at 150 V for 1.5 h. Gels were dried and used for autoradiography at −80° C. using Kodak XAR-5 films and intensifying screens.\nThe upstream oppD region contains a small sequence that is inversely repeated with a spacing of 9 base pairs in between (FIG. 1). This region of dyad symmetry is located just upstream of the −35 promoter sequence. To determine whether this region is important for the interaction with CodY, a stepwise deletion analysis of the oppD upstream region was performed. Radioactively labeled deletion fragments of the region, obtained by PCR, were incubated with H6-CodY. […]\nDifferent parts of the oppD promoter region were amplified by PCR (panel A), radioactively labelled and incubated with no (lanes 1), 20 ng (lanes 2) or 200 ng (lanes 3) of His6-CodY protein, respectively (panel B). […] Cells were harvested in the exponential phase of growth and β-galactosidase activity was measured (solid bars). […]"}, "[5]": {"target": "T2, CodY (H6-CodY)", "assay": "EMSA; 20 or 200 ng H6-CodY", "conditions": "tags: N-terminal His6 (pNH6CodY, nisin-induced in L. lactis NZ9000, Ni-NTA); chain copies: multimer, dimer or tetramer by cross-linking (stated); label: 32P 5'-end", "description": "(§3) Gel retardation experiments were carried out essentially as described by Ebbole and Zalkin (Ebbole et al., 1989). Purified PCR products (2 μg) were end-labelled with polynucleotide kinase (Amersham Pharmacia Biotech) for 1 h at 37° C. using 30 μCi [γ-³²P]-ATP (Amersham Pharmacia Biotech) in a volume of 20 μl. Reactions were stopped by incubating the mixtures for 10 min at 70° C. Binding studies were carried out in 20 μl reaction volumes containing 20 mM Tris-HCl (pH 8.0), 8.7% (v/v) glycerol, 1 mM EDTA (pH 8.0), 5 mM MgCl₂, 100 mM KCL, 0.5 mM DTT, labelled DNA fragment (3000 cpm), and purified His6-CodY protein (50-400 ng). BSA (1 μg) and poly(dI-dC) (Amersham Pharmacia Biotech) were added to the reaction mixtures in order to reduce non-specific interactions. After incubation for 15 min at 30° C., samples were loaded onto a 4% polyacrylamide gel. Electrophoresis was performed in the Protean II Minigel System (Bio Rad Laboratories B. V., Veenendaal, The Netherlands) using a gradient (0.5× to 2×) of TAE buffer (Sambrook, Fritsch, and Maniatis, 1989) at 150 V for 1.5 h. Gels were dried and used for autoradiography at −80° C. using Kodak XAR-5 films and intensifying screens.\nThe upstream oppD region contains a small sequence that is inversely repeated with a spacing of 9 base pairs in between (FIG. 1). This region of dyad symmetry is located just upstream of the −35 promoter sequence. […]"}, "[6]": {"target": "T2, CodY (H6-CodY)", "assay": "EMSA; multiple retarded bands, four with 10-100 ng; 5 mM MgCl2, 100 mM KCl, pH 8.0, 30 C; Ile (0.6 or 2.5 mM) stimulates, Val/Leu 0.6 mM reduce shift and 2.5 mM give", "conditions": "tags: N-terminal His6 (pNH6CodY, nisin-induced in L. lactis NZ9000, Ni-NTA); chain copies: multimer, dimer or tetramer by cross-linking (stated); label: 32P 5'-end", "description": "as §3, with “Binding studies were carried out in 20 μl reaction volumes containing 20 mM Tris-HCl (pH 8.0), 8.7% (v/v) glycerol, 1 mM EDTA (pH 8.0), 5 mM MgCl₂, 100 mM KCL, 0.5 mM DTT, labelled DNA fragment (3000 cpm), and purified His6-CodY protein (50-400 ng).” left out\nIn order to examine whether L. lactis CodY directly interacts with upstream DNA sequences of its main target known so far, oppD, in vitro DNA binding studies were performed. For this purpose, histidine-tagged CodY was overexpressed using the nisin inducible gene expression system (Kuipers et al., 1998) and subsequently purified to apparent homogeneity. A radioactively labeled PCR fragment spanning the oppD upstream region (FIG. 1) was used as a probe. […]"}},
  "data": [
    {"molecule": "prtP/prtM intergenic region BGMN1-5 (330 bp)", "values": [
      {"measurement": "activity", "setting": "[1]", "value": 6}
    ]},
    {"molecule": "B1", "values": [
      {"measurement": "activity", "setting": "[2]", "value": "~7", "unit": "fold derepression vs WT"}
    ]},
    {"molecule": "B2", "values": [
      {"measurement": "binding result", "setting": "[3]", "value": "binds"}
    ]},
    {"molecule": "B3", "values": [
      {"measurement": "binding result", "setting": "[4]", "value": "no binding"}
    ]},
    {"molecule": "B4", "values": [
      {"measurement": "binding result", "setting": "[5]", "value": "binds"}
    ]},
    {"molecule": "B5", "values": [
      {"measurement": "binding result", "setting": "[6]", "value": "binds"}
    ]},
    {"molecule": "B6", "values": [
      {"measurement": "activity", "setting": "[2]", "value": "> 20", "unit": "fold derepression vs WT"}
    ]}
  ]
}
